According to patent US10738094B2, “Peptides and combination of peptides for use in immunotherapy against ovarian cancer and other cancers” (immatics biotechnologies GmbH, priority 2015, dated 2020):

Molecular target: HLA-A*02:01 (Homo sapiens, UniProt P04439, D140Y/D185E/D98H/E176V/E277Q/G131W/G231S/I119V/I121R/I166T/I218V/L300P/L318F/N151K/N90K/P208A/P217A/Q86G/Q94H/R138H/R169H/T345S)
Assay: MHC binding assay (UV-ligand exchange, beta2m ELISA)
Conditions: binding to HLA-A*02:01 ranged by peptide exchange yield (UV-ligand exchange, β2m ELISA)
Source text: Candidate peptides for T cell based therapies according to the present invention were further tested for their MHC binding capacity (affinity). The individual peptide-MHC complexes were produced by UV-ligand exchange, where a UV-sensitive peptide is cleaved upon UV-irradiation, and exchanged with the peptide of interest as analyzed. Only peptide candidates that can effectively bind and stabilize the peptide-receptive MHC molecules prevent dissociation of the MHC complexes. To determine the yield of the exchange reaction, an ELISA was performed based on the detection of the light chain (β2m) of stabilized MHC complexes. The assay was performed as generally described in Rodenko et al. (Rodenko et al., 2006).
96 well MAXISorp plates (NUNC) were coated over night with 2 ug/ml streptavidin in PBS at room temperature, washed 4× and blocked for 1 h at 37° C. in 2% BSA containing blocking buffer. […] Peptide-MHC monomers of the UV-exchange reaction were diluted 100 fold in blocking buffer. Samples were incubated for 1 h at 37° C., washed four times, incubated with 2 ug/ml HRP conjugated anti-β2m for 1 h at 37° C., washed again and detected with TMB solution that is stopped with […]. Absorption was measured at 450 nm. Candidate peptides that show a high exchange yield (preferably higher than 50%, most preferred higher than 75%) are generally preferred for a generation and production of antibodies or fragments thereof, and/or T cell receptors or fragments thereof, as they show sufficient avidity to the MHC molecules and prevent dissociation of the MHC complexes.

| Substance | Peptide exchange |
| --- | --- |
| 407 (YLMDLINFL; listed as Homo sapiens) [compound 407] | “+++” (≥50 = +++) |
| 72 (SLLELDGINL; listed as Homo sapiens) [compound 72] | “+++” (≥50 = +++) |
| 4 (GIMEHITKI; listed as Homo sapiens) [compound 4] | “++++” (≥75% = ++++) |
| 91 (IMQDFPAEIFL; listed as Homo sapiens) [compound 91] | “++++” (≥75% = ++++) |
| 55 (SLLDLETLSL; listed as Homo sapiens) [compound 55] | “++++” (≥75% = ++++) |
| 157 (SLNDEVPEV; listed as Homo sapiens) [compound 157] | “++” (≥20% = ++) |
| 377 (FLLDSSASV; listed as Homo sapiens) [compound 377] | “++” (≥20% = ++) |
| 303 (AILPQLFMV; listed as Homo sapiens) [compound 303] | “++++” (≥75% = ++++) |
| 160 (FLFDEEIEQI; listed as Homo sapiens) [compound 160] | “+++” (≥50 = +++) |
| 153 (FLIANVLYL; listed as Homo sapiens) [compound 153] | “+” (≥10% = +) |
| 374 (FLLQQHLISA; listed as Homo sapiens) [compound 374] | “++” (≥20% = ++) |
| 249 (LLDGFLVNV; listed as Homo sapiens) [compound 249] | “+++” (≥50 = +++) |
| 69 (FQLDPSSGVLVTV; listed as Homo sapiens) [compound 69] | “+++” (≥50 = +++) |
| 408 (VLDDSIYLV; listed as Homo sapiens) [compound 408] | “++” (≥20% = ++) |
| 99 (ALVSKGLATV; listed as Homo sapiens) [compound 99] | “++” (≥20% = ++) |
| 20 (RMIEYFIDV; listed as Homo sapiens) [compound 20] | “+++” (≥50 = +++) |
| 276 (ALFTFSPLTV; listed as Homo sapiens) [compound 276] | “+++” (≥50 = +++) |
| 591 (SMAELDIKL; listed as Homo sapiens) [compound 591] | “+++” (≥50 = +++) |

| Substance | Peptide exchange |
| --- | --- |
| 304 (MTLGQIYYL; listed as Homo sapiens) [compound 304] | “+++” (≥50 = +++) |
| 527 (FLLEPGNLEV; listed as Homo sapiens) [compound 527] | “++++” (≥75% = ++++) |
| 434 (KVSNSGITRV; listed as Homo sapiens) [compound 434] | “++” (≥20% = ++) |
| 506 (KLLGKVETA; listed as Homo sapiens) [compound 506] | “+++” (≥50 = +++) |
| 358 (ALDEYTSEL; listed as Homo sapiens) [compound 358] | “++++” (≥75% = ++++) |
| 526 (RLAEVGQYEQV; listed as Homo sapiens) [compound 526] | “++” (≥20% = ++) |
| 217 (ALIHPVSTV; listed as Homo sapiens) [compound 217] | “++” (≥20% = ++) |
| 340 (ALLSMTFPL; listed as Homo sapiens) [compound 340] | “++++” (≥75% = ++++) |
| 310 (FLVDTPLARA; listed as Homo sapiens) [compound 310] | “++++” (≥75% = ++++) |
| 83 (ILAPTVMMI; listed as Homo sapiens) [compound 83] | “+++” (≥50 = +++) |
| 587 (VMNDRLYAI; listed as Homo sapiens) [compound 587] | “+++” (≥50 = +++) |
| 471 (YLYNNMIAKI; listed as Homo sapiens) [compound 471] | “+++” (≥50 = +++) |
| 597 (KLLEGQVIQL; listed as Homo sapiens) [compound 597] | “+++” (≥50 = +++) |
| 381 (FIDEAYVEV; listed as Homo sapiens) [compound 381] | “++” (≥20% = ++) |
| 472 (KLLEVSDDPQV; listed as Homo sapiens) [compound 472] | “+++” (≥50 = +++) |
| 426 (RLADKSVLV; listed as Homo sapiens) [compound 426] | “+++” (≥50 = +++) |
| 262 (LLWGDLIWL; listed as Homo sapiens) [compound 262] | “+++” (≥50 = +++) |

Second part, the substance after the results:

| Peptide exchange | Substance |
| --- | --- |
| “+++” (≥50 = +++) | 366 (RLLDMGETDLML; listed as Homo sapiens) [compound 366] |
| “++” (≥20% = ++) | 133 (KVLSNIHTV; listed as Homo sapiens) [compound 133] |
| “+++” (≥50 = +++) | 138 (YQYPRAILSV; listed as Homo sapiens) [compound 138] |
| “+++” (≥50 = +++) | 216 (NLWEDPYYL; listed as Homo sapiens) [compound 216] |
| “+++” (≥50 = +++) | 164 (ALLPQPKNLTV; listed as Homo sapiens) [compound 164] |
| “+++” (≥50 = +++) | 503 (SLNHFTHSV; listed as Homo sapiens) [compound 503] |
| “++” (≥20% = ++) | 227 (ALMNTLLYL; listed as Homo sapiens) [compound 227] |
| “++” (≥20% = ++) | 211 (LLWPGAALL; listed as Homo sapiens) [compound 211] |
| “+++” (≥50 = +++) | 282 (LLADVVPTT; listed as Homo sapiens) [compound 282] |
| “++” (≥20% = ++) | 273 (NLFQSVREV; listed as Homo sapiens) [compound 273] |
| “+++” (≥50 = +++) | 255 (VLASYNLTV; listed as Homo sapiens) [compound 255] |
| “+++” (≥50 = +++) | 607 (RLYSGISGLEL; listed as Homo sapiens) [compound 607] |
| “++” (≥20% = ++) | 31 (YLAPELFVNV; listed as Homo sapiens) [compound 31] |
| “++++” (≥75% = ++++) | 466 (VLIANLEKL; listed as Homo sapiens) [compound 466] |
| “+++” (≥50 = +++) | 271 (LVYPLELYPA; listed as Homo sapiens) [compound 271] |
| “+++” (≥50 = +++) | 224 (TLIDAQWVL; listed as Homo sapiens) [compound 224] |
| “++” (≥20% = ++) | 559 (VTVPPGPSL; listed as Homo sapiens) [compound 559] |
| “+++” (≥50 = +++) | 367 (SLQNHNHQL; listed as Homo sapiens) [compound 367] |
| “+++” (≥50 = +++) | 364 (LLQNEQFEL; listed as Homo sapiens) [compound 364] |
| “+++” (≥50 = +++) | 158 (KLFDVDEDGYI; listed as Homo sapiens) [compound 158] |
| “+++” (≥50 = +++) | 239 (AAFAGKLLSV; listed as Homo sapiens) [compound 239] |
| “++++” (≥75% = ++++) | 109 (IILSILEQA; listed as Homo sapiens) [compound 109] |
| “++” (≥20% = ++) | 131 (FVPPVTVFPSL; listed as Homo sapiens) [compound 131] |
| “+++” (≥50 = +++) | 243 (LLLNELPSV; listed as Homo sapiens) [compound 243] |
